In patent US20140377288A1 (University of Texas, published 2014):

Biological target: T1, GST-hEphA5 (1-72 aa) (human, UniProt P54756 304-375)
T1 construct: also called first 72 amino acids of the region 304-467 of the hEphA5 protein fused to GST; not shown: Glutathione S-transferase (GST) fusion partner
T1 sequence: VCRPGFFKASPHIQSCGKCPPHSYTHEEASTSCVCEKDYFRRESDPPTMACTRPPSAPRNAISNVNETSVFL
Assay: ELISA with decreasing amount of 11C12 on GST fusion proteins
Description: FIG. 10: Further 11C12 epitope mapping on human EphA5. ELISA assays were performed with decreasing amount of 11C12 antibody in the presence of various portions of human EphA5 fused to GST. GST fusion proteins included EphA5 sequence from the regions corresponding to amino acids 304-467 (SEQ ID NO:3) and are numbered relative to this region. GST fusion proteins included GST-hEphA5 (1-24 aa) (SEQ ID NO:4); GST-hEphA5 (1-48 aa) (SEQ ID NO:5); GST-hEphA5 (1-72 aa) (SEQ ID NO:6); GST-hEphA5 (1-95 aa) (SEQ ID NO:7); GST-hEphA5 (1-120 aa) (SEQ ID NO:8); GST-hEphA5 (1-144 aa) (SEQ ID NO:9); and GST-hEphA5 (1-164 aa) (SEQ ID NO:10).
Epitope mapping was performed with protein fragments of human EphA5. […] This region is provided as SEQ ID NO:3. Further epitope mapping was performed by ELISA using fusion proteins including EphA5 sequences within the 304-467 region (FIG. 10).

binding result: binds
B1: 11C12 monoclonal anti-EphA5 antibody (antibody, mouse IgG1, V domains shown)
VH: EVTLKESGGGLVQPGGSRKLSCAASGFTFSTFGIHWVRQAPEKGLEWVAYISGASTTIYYADTVKGRFTISRDNPKNTLFLQMTSLRSEDTAMYYCARYGTSFPYGLDYWGQGTSVTVSS
VL: DIVMTQSPGSLAVSLGQRATISCKASQSVDYDGDSYMNWYQQKPGQPPKLLIYGASNLESGIPARFSGSGSGTDFTLNIHPVEEEDAASYYCQQSNEDPFTFGSGTKLEIK
notes: Murine IgG1 monoclonal antibody from a hybridoma; also called monoclonal antibody 11C12; 11C12 antibody
